Assay results: the nanobody polyreactivity screen of Harvey et al. (2022)

Test: yeast display, Sf9 membrane polyspecificity reagent, FACS + sequencing; frameworks hold sequencing errors
How it was run: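 Sorting gates, low and high (top ~1%), were placed on anti-HA fluorescence to track expression and on streptavidin fluorescence to track reagent binding. A clone's polyreactivity label is taken from the gate it came out of. The reagent was 10% biotinylated, detergent-solubilized Sf9 membrane, applied for 1 hour at 4 °C to galactose-induced yeast display cells.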

| Sequence | polyreactivity (PSR sort gate) |
| --- | --- |
| QVQLVESGGGLVQAGGSLRLSCAASGFVWYTMGWYRQAPGKERELVADITYRGGSTYYADSVKGRFTISRDNAKNTVYLQMNSLKPEDTAVYYCAAKPHWYWRYEYWGQGTQVTVSS | high polyreactivity |
| QVQLEESGGGLVQAGGSLSLTCAASGRTFFTYAMGWYRQAPGKERELVAAIRWTGGRTTYADSVKARFSISRDNAKNTVYLQMISLKPEDTAVYYCAARVGRTYASYSTGNYYWGQGTQVTVSS | high polyreactivity |
| QVQLVESGGGLVQAGGSLRLSCAASGFTFVGYVMGWYRQAPGKERELVAAISRRGRSTYYADSVKGRFTISRDNAKNTVYLQMNSLKPEDTAVYYCNKRWSSKSVQYDYWGQGTQVTVSS | high polyreactivity |
| QVQLVESGGGLVQAGGRLRLSCAASGRTFGINAMGWYRQEPGKERELVASISSGGRTNYADSVKGRFTISRHNAKNTVYLQMNSLKPEDTAVYYCARSRLGRAYGRYDYWGQGTQVTVSS | low polyreactivity |
| QVQLVESGGGLVQAGGSLRLSCAASGGIFFYSAMGWYRQAPGTERELVAAISYSGGSTYYADSVKGRFTISRDIAKNTVYLQMISLKPEDTAVYYCAADVYSESKSGIYEYWGQGTQVTVSS | low polyreactivity |
| QDQLVESGGGLVQAGGSLRLSCAASGRIFGWYAMGWYRQAPGKERELVAAISNDGSTNYADSVKGRFTISRDNAKNTVYLQMNSLKPEDTAVYYSAARFYRSSYGWYGYWGQGTQVTVSS | high polyreactivity |
| QVHLVESGGGLVQAGGSLRLSCAASGSIFYIYAMGWYRQAPGKERELVAGITSGGGTYYADSVKGRFTISRDNAKNTVYLQMNSLKPEDTAVYYCAADYLYDYDYWGQGTQVTVSS | high polyreactivity |
| QVQLVESGRGLVQAGGSLRLSCAASGIIFRLNAMGWYRQAPGKERELVAAILRRGGSTYYADSVKGRFTISRDNAKNTVYFQMNSLKPEDTAVDYCAKDPHGSDFGYWGQGTQVTVSS | low polyreactivity |
| QVQLVESVGGLVQAGGSLRLSCAASGITFYWYAMGWYRQAPGKERELVASITGNGGGTSYADSVKGRFTISRDNAKNTVYLQMNSLKPEDTAVYYCNTSVGGKEYDSWGQGTQVTVSS | low polyreactivity |
| QVQLVESGGGLVQAGGSLRLSWAASGITFYVYAMGWYRQAPGKERELVAAISRRGGSTSYADSVKGRFTISRDNAKNTVYLQMNSLKPEDTAVYYGAAGPFYGGIVRRYDYWGQGTQVTVSS | low polyreactivity |
| QVQLVESVGGLVQAGGSLRLICAASGSIFGVYAMGWYRQAPGKERELVAVIRWRGGSTYYADSVKGRFTISRDYAKNTVFLQMNILKPEDTAVYYCAARLHIVVATYDRRYDYWGQGTQVTVSS | low polyreactivity |
| QVQLVESGGGLLQAGGRLRLSCAASGSIFPYYAMGWYRQAPGKERALVAAISDSGDSTYYADSVKGRFTMSRDNAKNTVYLQMNSLKPEDTAVYYCAADQTSSYYDPWGDYWGQGTQVTVSS | low polyreactivity |
| QVQLQGSGGGLAQAGDSLRLSCAASGTIFSEYNNGLVSPGAGQRTRTCCRYWCWGNTYYADSAKGRFTTSRDNAKNTVYLQKHSLKPADTAVYYCAFNRPFPSRHIYRGQGTQVTVSS | high polyreactivity |
| QVQLVESGGGLVQAGGSLRLSCAASGFTFSFYAMGRYRQAPGKEREYVAAITNSGGSTYYADSVKGRFTISRDNAKNTVYLQMNSLKPEDTGVYYCASKRAWPGYFTYYSWGQGTQVTVSS | high polyreactivity |
| QVQLVESGGCLVQAGGSLRLSCAASGITFRSYTMGWYRQAPGQESELVAAISYSAGSTYYADSVKGRFTISRDNAKNTVYLQMNSLKPEDTAVYYCAARPRLVVLVIRFYYWGQGTQVTVSS | high polyreactivity |
| QVQLVESGGGLVQAGGSLRLSCAASGRTFDRYAMGWYRQAPGKERELVAAISRGGSTNYADSVKGRFTISRDNAKNTVYLQMNSLKPEDTAVYYCAARVSFLHLRRAYDYWGQGTQVTVSS | high polyreactivity |
